Test results published in article PMC10397247.
Each block holds one binder with its values, some of them ahead of it.

Columns and labels:
Test in all cases: two-hybrid library CCmax;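 also: natural log of median RNA to DNA barcode read ratio; higher means stronger binding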
[1] = target: T1, Core_IIII-es_KKKE; conditions: mean of both orientations
T1 chain: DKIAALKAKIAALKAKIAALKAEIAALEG

[2] = target: T2, 4H1349-AA; conditions: mean of both orientations
T2 chain: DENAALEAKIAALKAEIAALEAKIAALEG

[3] = target: T3, 4H249-AA; conditions: mean of both orientations
T3 chain: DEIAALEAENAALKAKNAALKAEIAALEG

[4] = target: T4, 4H446-AA; conditions: mean of both orientations
T4 chain: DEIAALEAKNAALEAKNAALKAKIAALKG

[5] = target: T5, 4H432-AA; conditions: mean of both orientations
T5 chain: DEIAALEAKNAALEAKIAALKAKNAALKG

[6] = target: T6, 4H1262-AA; conditions: mean of both orientations
T6 chain: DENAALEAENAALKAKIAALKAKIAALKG

[7] = target: T7, 4H1593-AA; conditions: mean of both orientations
T7 chain: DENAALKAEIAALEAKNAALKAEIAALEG

[8] = target: T8, 4H2774-AA; conditions: mean of both orientations
T8 chain: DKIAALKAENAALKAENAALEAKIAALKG

[9] = target: T9, 4H1040-AA
T9 chain: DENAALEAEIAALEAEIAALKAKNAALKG

[10] = target: T10, 4H3094-AA; conditions: mean of both orientations
T10 chain: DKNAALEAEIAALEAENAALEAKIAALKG

[11] = target: T11, 4H2760-AA; conditions: mean of both orientations
T11 chain: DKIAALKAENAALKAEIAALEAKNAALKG

[12] = target: T12, 4H3629-AA; conditions: mean of both orientations
T12 chain: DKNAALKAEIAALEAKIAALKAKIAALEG

[13] = target: T13, 4H1449-AA; conditions: mean of both orientations
T13 chain: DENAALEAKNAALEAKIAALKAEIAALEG

[14] = target: T14, 4H324-AA; conditions: mean of both orientations
T14 chain: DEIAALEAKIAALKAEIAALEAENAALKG

[15] = target: T15, 4H3619-AA; conditions: mean of both orientations
T15 chain: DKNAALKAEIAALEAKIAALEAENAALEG

[16] = target: T16, 4H133-AA; conditions: mean of both orientations
T16 chain: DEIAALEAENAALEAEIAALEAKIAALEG

[17] = target: T17, 4H3974-AA; conditions: mean of both orientations
T17 chain: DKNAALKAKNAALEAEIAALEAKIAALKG

[18] = target: T18, 4H2604-AA; conditions: mean of both orientations
T18 chain: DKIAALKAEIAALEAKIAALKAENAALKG

[19] = target: T19, 4H3449-AA; conditions: mean of both orientations
T19 chain: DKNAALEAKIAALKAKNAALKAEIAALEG

[20] = target: T20, 4H1878-AA; conditions: mean of both orientations
T20 chain: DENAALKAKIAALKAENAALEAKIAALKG

[21] = target: T21, 4H2947-AA; conditions: mean of both orientations
T21 chain: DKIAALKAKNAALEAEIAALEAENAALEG

[22] = target: T22, 4H235-AA; conditions: mean of both orientations
T22 chain: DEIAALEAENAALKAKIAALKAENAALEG

[23] = target: T23, 4H2903-AA; conditions: mean of both orientations
T23 chain: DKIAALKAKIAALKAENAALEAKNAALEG

[24] = target: T24, 4H341-AA; conditions: mean of both orientations
T24 chain: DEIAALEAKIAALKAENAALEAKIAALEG

[25] = target: T25, 4H2580-AA; conditions: mean of both orientations
T25 chain: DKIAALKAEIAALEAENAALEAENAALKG

[26] = target: T26, 4H2621-AA; conditions: mean of both orientations
T26 chain: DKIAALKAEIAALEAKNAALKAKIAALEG

[27] = target: T27, 4H2961-AA; conditions: mean of both orientations
T27 chain: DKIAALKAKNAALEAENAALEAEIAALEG

[28] = target: T28, 4H3777-AA; conditions: mean of both orientations
T28 chain: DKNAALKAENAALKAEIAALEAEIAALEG

[29] = target: T29, 4H3049-AA; conditions: mean of both orientations
T29 chain: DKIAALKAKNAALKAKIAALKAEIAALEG

[30] = target: T30, 4H3915-AA; conditions: mean of both orientations
T30 chain: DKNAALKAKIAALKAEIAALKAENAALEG

[31] = target: T31, 4H63-AA; conditions: mean of both orientations
T31 chain: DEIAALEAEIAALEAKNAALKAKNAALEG

[32] = target: T32, 4H380-AA; conditions: mean of both orientations
T32 chain: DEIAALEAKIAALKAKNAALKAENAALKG

[33] = target: T33, 4H1384-AA; conditions: mean of both orientations
T33 chain: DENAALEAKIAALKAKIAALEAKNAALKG

[34] = target: T34, Core_NINN-es_KEEE; conditions: mean of both orientations
T34 chain: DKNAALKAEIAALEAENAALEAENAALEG

[35] = target: T35, Core_IIIN-es_KKKE; conditions: mean of both orientations
T35 chain: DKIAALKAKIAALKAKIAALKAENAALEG

[36] = target: T36, 4H_APH; conditions: mean of both orientations
T36 chain: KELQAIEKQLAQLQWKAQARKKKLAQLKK

[37] = target: T37, 4H347-AA; conditions: mean of both orientations
T37 chain: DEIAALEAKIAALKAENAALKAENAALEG

[38] = target: T38, 4H2592-AA; conditions: mean of both orientations
T38 chain: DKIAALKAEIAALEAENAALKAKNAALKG

[39] = target: T39, 4H3015-AA; conditions: mean of both orientations
T39 chain: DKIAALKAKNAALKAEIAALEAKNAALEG

[40] = target: T40, 4H2165-AA; conditions: mean of both orientations
T40 chain: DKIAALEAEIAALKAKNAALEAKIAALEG

[41] = target: T41, 4H2466-AA; conditions: mean of both orientations
T41 chain: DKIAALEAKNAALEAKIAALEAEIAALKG

[42] = target: T42, 4H_BCR; conditions: mean of both orientations
T42 chain: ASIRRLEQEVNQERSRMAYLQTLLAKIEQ

[43] = target: T43, 4H2931-AA; conditions: mean of both orientations
T43 chain: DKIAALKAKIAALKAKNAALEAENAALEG

[44] = target: T44, 4H175-AA; conditions: mean of both orientations
T44 chain: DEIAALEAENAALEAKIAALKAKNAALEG

[45] = target: T45, 4H1765-AA; conditions: mean of both orientations
T45 chain: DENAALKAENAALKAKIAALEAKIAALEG

[46] = target: 4H_GCN4
[47] = target: T46, 4H2330-AA; conditions: mean of both orientations
T46 chain: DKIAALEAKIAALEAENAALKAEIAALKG

[48] = target: T47, 4H2253-AA
T47 chain: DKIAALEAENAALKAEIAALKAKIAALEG

[49] = target: T48, 4H2343-AA; conditions: mean of both orientations
T48 chain: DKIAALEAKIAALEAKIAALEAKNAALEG

[50] = target: T49, 4H452-AA; conditions: mean of both orientations
T49 chain: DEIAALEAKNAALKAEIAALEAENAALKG

[51] = target: T50, 4H2732-AA; conditions: mean of both orientations
T50 chain: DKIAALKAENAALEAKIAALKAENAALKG

[52] = target: T51, 4H1828-AA; conditions: mean of both orientations
T51 chain: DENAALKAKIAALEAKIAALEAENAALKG

[53] = target: T52, 4H1930-AA; conditions: mean of both orientations
T52 chain: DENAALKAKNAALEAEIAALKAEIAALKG

[54] = target: T53, 4H406-AA; conditions: mean of both orientations
T53 chain: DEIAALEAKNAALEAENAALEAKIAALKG

[55] = target: T54, 4H3073-AA; conditions: mean of both orientations
T54 chain: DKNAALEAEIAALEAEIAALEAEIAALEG

[56] = target: T55, 4H2124-AA; conditions: mean of both orientations
T55 chain: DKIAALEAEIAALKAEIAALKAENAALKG

[57] = target: GCN2_T; conditions: mean of both orientations
[58] = target: T56, 4H1650-AA; conditions: mean of both orientations
T56 chain: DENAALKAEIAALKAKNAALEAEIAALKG

[59] = target: T57, 4H1615-AA
T57 chain: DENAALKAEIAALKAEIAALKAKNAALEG

[60] = target: T58, 4H1821-AA; conditions: mean of both orientations
T58 chain: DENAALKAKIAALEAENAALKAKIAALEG

[61] = target: T59, 4H3438-AA; conditions: mean of both orientations
T59 chain: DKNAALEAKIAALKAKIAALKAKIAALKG

[62] = target: T60, 4H56-AA; conditions: mean of both orientations
T60 chain: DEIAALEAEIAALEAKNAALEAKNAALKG

[63] = target: T61, 4H3001-AA; conditions: mean of both orientations
T61 chain: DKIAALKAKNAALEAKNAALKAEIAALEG

Sequence of 4H_GCN4 (chain, as listed by the source): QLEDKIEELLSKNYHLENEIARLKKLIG

interaction score [34]: 2.12
Binder: DENAALEAKIAALKAKNAALKAKNAALKG [Core_NINN-es_EKKK]

interaction score [35]: 2.19
Binder: DEIAALEAEIAALEAEIAALEAKNAALKG [Core_IIIN-es_EEEK]

Second part, the binder before the results:

Binder: DEIAALEAEIAALEAEIAALEAKIAALKG [Core_IIII-es_EEEK]
interaction score [1]: 2.4

Binder: DENAALEAEIAALEAEIAALKAKNAALKG [4H1040-AA]
interaction score [2]: 0.263
interaction score [3]: -0.999
interaction score [4]: -1.4
interaction score [5]: -1.63
interaction score [6]: 1.1
interaction score [7]: -1.27
interaction score [8]: -0.661
interaction score [9]: 0.802
interaction score [10]: -1.03
interaction score [11]: -1.46
interaction score [12]: 1.28
interaction score [13]: 0.618
interaction score [14]: 1.68
interaction score [15]: 0.716
interaction score [16]: -1.47
interaction score [17]: 0.222
interaction score [18]: 0.338
interaction score [19]: -0.935
interaction score [20]: -0.752
interaction score [21]: -1.06
interaction score [22]: -1.14
interaction score [23]: 1.05
interaction score [24]: -0.876
interaction score [25]: 1.19
interaction score [26]: -0.66
interaction score [27]: -1.24
interaction score [28]: -0.948
interaction score [29]: 1.34
interaction score [30]: 2.34
interaction score [31]: -1.26
interaction score [32]: 0.307
interaction score [33]: 0.28

Binder: DENAALKAEIAALKAEIAALKAKNAALEG [4H1615-AA]
interaction score [3]: -2.1
interaction score [36]: -1.58
interaction score [37]: -1.38
interaction score [38]: -1.27
interaction score [39]: -1.68
interaction score [40]: -1.55
interaction score [8]: -1.47
interaction score [41]: -1.57
interaction score [42]: -1.79
interaction score [43]: -1.79
interaction score [44]: -1.43
interaction score [45]: -1.45
interaction score [46]: -1.57
interaction score [47]: -1.4
interaction score [48]: -1.57
interaction score [49]: -0.958
interaction score [50]: -1.96
interaction score [51]: -1.79
interaction score [52]: -1.78
interaction score [53]: -1.07
interaction score [54]: -1.66
interaction score [55]: -0.406
interaction score [56]: -1.09
interaction score [57]: -1.38
interaction score [58]: -1.46
interaction score [59]: 1.78
interaction score [60]: -1.23
interaction score [61]: -0.739
interaction score [62]: -1.15
interaction score [63]: -1.81
